# Positions count from the first letter of the chain named. Names and notes keep the numbering of the source. Like-named read-outs stand apart in the source and are kept apart here.
# B1: A160V: PYR1 mutant A160V, SEQ ID NO:141; for ITC the cleaved recombinant protein with NH2-terminal QS appendage (protein)
# chain: MPSELTPEERSELKNSIAEFHTYQLDPGSCSSLHAQRIHAPPELVWSIVRRFDKPQTYKHFIKSCSVEQNFEMRVGCTRDVIVISGLPANTSTERLDILDDERRVTGFSIIGGEHRLTNYKSVTTVHRFEKENRIWTVVLESYVVDMPEGNSEDDTRMFVDTVVKLNLQKLATVAEAMARNSGDGSGSQVT
# modifications: N-terminal QS appendage for ITC; synthetic Arabidopsis PYR1 mutant A160V
# B2: F61L: PYR1 mutant F61L, SEQ ID NO:124 (protein)
# chain: B1 chain with F61L, V160A
# modifications: synthetic Arabidopsis PYR1 mutant F61L
# B3: V81I: PYR1 mutant V81I, SEQ ID NO:126 (protein)
# chain: B1 chain with V81I, V160A
# modifications: synthetic Arabidopsis PYR1 mutant V81I
# B4: E141Y: PYR1 mutant E141Y, SEQ ID NO:138 (protein)
# chain: B1 chain with E141Y, V160A
# modifications: synthetic Arabidopsis PYR1 mutant E141Y
# B5: E141W: PYR1 mutant E141W, SEQ ID NO:137 (protein)
# chain: B1 chain with E141W, V160A
# modifications: synthetic Arabidopsis PYR1 mutant E141W
# B6: A160C: PYR1 mutant A160C, SEQ ID NO:139 (protein)
# chain: B1 chain with V160C
# modifications: synthetic Arabidopsis PYR1 mutant A160C
# B7: F61M: PYR1 mutant F61M, SEQ ID NO:125 (protein)
# chain: B1 chain with F61M, V160A
# modifications: synthetic Arabidopsis PYR1 mutant F61M
# B8: E141M: PYR1 mutant E141M, SEQ ID NO:133 (protein)
# chain: B1 chain with E141M, V160A
# modifications: synthetic Arabidopsis PYR1 mutant E141M
# B9: E141L: PYR1 mutant E141L, SEQ ID NO:132 (protein)
# chain: B1 chain with E141L, V160A
# modifications: synthetic Arabidopsis PYR1 mutant E141L
# B10: I110C: PYR1 mutant I110C, SEQ ID NO:128 (protein)
# chain: B1 chain with I110C, V160A
# modifications: synthetic Arabidopsis PYR1 mutant I110C
# B11: E141V: PYR1 mutant E141V, SEQ ID NO:136 (protein)
# chain: B1 chain with E141V, V160A
# modifications: synthetic Arabidopsis PYR1 mutant E141V
# B12: E141I: PYR1 mutant E141I, SEQ ID NO:131 (protein)
# chain: B1 chain with E141I, V160A
# modifications: synthetic Arabidopsis PYR1 mutant E141I
# B13: E141N: PYR1 mutant E141N, SEQ ID NO:134 (protein)
# chain: B1 chain with E141N, V160A
# modifications: synthetic Arabidopsis PYR1 mutant E141N
# B14: A160I: PYR1 mutant A160I, SEQ ID NO:140 (protein)
# chain: B1 chain with V160I
# modifications: synthetic Arabidopsis PYR1 mutant A160I
# B15: E141T: PYR1 mutant E141T, SEQ ID NO:135 (protein)
# chain: B1 chain with E141T, V160A
# modifications: synthetic Arabidopsis PYR1 mutant E141T
# B16: I110S: PYR1 mutant I110S, SEQ ID NO:129 (protein)
# chain: B1 chain with I110S, V160A
# modifications: synthetic Arabidopsis PYR1 mutant I110S
# B17: E141C: PYR1 mutant E141C, SEQ ID NO:130 (protein)
# chain: B1 chain with E141C, V160A
# modifications: synthetic Arabidopsis PYR1 mutant E141C
# B18: V81Y: PYR1 mutant V81Y, SEQ ID NO:127 (protein)
# chain: B1 chain with V81Y, V160A
# modifications: synthetic Arabidopsis PYR1 mutant V81Y
# Tests used:
# HAB1 = test: PYR1 mutant-HAB1 yeast two-hybrid assay under different ABA concentrations (X-gal staining); type: cell-based; details: lowest (+)-ABA concentration giving detectable X-gal staining; S. cerevisiae Y190 with pACT-HAB1; 30° C., 48 hours
# Description: The affinity of a receptor for a target ligand is typically determined by non-covalent interactions between ligand-binding residues and the ligand. Mutations in such residues can have negative, positive or neutral effects on the strength of the receptor—ligand interaction. The affinity of a receptor-ligand interaction is intrinsically correlated with the concentration of ligand required to elicit biological effects, with high affinity ligands requiring lower concentrations relative to low affinity ligands. A mutant receptor with increased affinity for a ligand can in some cases elicit greater biological effect relative to a wild type receptor, when both are activated under identical conditions by the same concentration of activating ligand. Thus, mutations that make a receptor hypersensitive to a ligand can be useful for engineering organisms that elicit stronger responses to the ligand relative to wild type. […] Based on these considerations, we set out to systematically establish specific ABA receptor mutations that increase ABA responsiveness. This was done by testing a collection of PYR1 variants with all possible single amino acid substitution mutations in ligand binding residues. Thus we conducted site-saturated mutagenesis of ABA-contacting residues, which we define as those that are within 5A or ABA or ABA-contacting water residues in available X-ray coordinates. This collection of mutants was constructed previously, as described in PCT Application No. PCT/US2012/043121 and Mosquna et al., Proc Natl Acad Sci USA 108: 20838-20843 (2011). This collection of mutants was made by mutagenizing a previously described pBD GAL-PYR1 template (Park, S.-Y., et al. Science 324, 1068-1071 ([…])). In response to ABA, this particular plasmid encodes a fusion protein that binds to a co-expressed GAL4 activation domain-HAB1 fusion protein, encoded by the plasmid pACT-HAB1. This binding reconstitutes a functional GAL4 transcriptional activator and subsequent transcription of a β-galactosidase reporter gene, which in turn enables colorimetric based detection of agonist promoted receptor-PP2C interaction when lysed cells are exposed to the substrate X-gal. The mutant clones were individually transformed into S. cerevisiae strain Y190 containing pACT-HAB1. Yeast transformants were selected for the presence of plasmids on synthetic dextrose (SD) agar plates lacking Leu and Trp (SD-LT) and examined for PP2C interactions by using X-gal staining to monitor β-gal reporter gene expression levels. Individual clones were arrayed into 96 well plates and then spotted onto SD-LT lawn (i.e. one-well) plates containing 0, 0.5 or 5.0 μM (+)-ABA. Each assay plate contained 95 mutant clones and one wild type PYR1 positive control clone. The spotted cells were cultured at 30° C. for 48 hours after which they were lysed by chloroform and stained with an X-gal solution, as previously described (Park, S.-Y., et al. (2009) Science 324, 1068-1071). […] After this initial screening exercise, all positives clones were retested on plates containing […] and stained for galactosidase activity as described above. Mutant clones showing detectable staining on 0.5 μM (+)-ABA or lower were scored as hypersensitive mutants. FIG. 1 depicts results of PYR1 mutant-HAB1 interactions as assayed in a yeast two-hybrid assay under different ABA concentrations, with darker spots indicating increased interaction.
# [1] = previously measured, Dupeux et al. 2010; read-out: affinity of wild type PYR1 (Kd) measured using ITC; cited from earlier work
# [2] = isothermal titration calorimetry (ITC) of receptor-ABA binding; details: 600 μM (+)-ABA injected into 60 μM receptor; PBS, 1 mM 2-mercaptoethanol, 0.012% DMSO; single binding site model
# Description: The ligand sensitivity of PYR1 and HAB1 yeast two hybrid strains generally correlates with receptor affinity. To examine if this was the case for the hypersensitive mutations identified by our functional screens, we conducted isothermal titration calorimetry (ITC) to measure the heat produced by a mutant receptor-ABA binding reaction and infer the ligand binding dissociation constant (Kd). […] The PYR1-A160V mutant receptor was expressed in E. coli BL21(DE3) as a fusion to the small ubiquitin like protein SUMO, using the vector pSUMO (LifeSensors, USA), which improves the solubility of proteins in E. coli and contains an NH2-terminal hexa-histidine tag that facilitates purification using immobilized metal affinity chromatography (IMAC). PYR1 A160V was cloned into pSUMO by using PCR product generated from a pBD-PYR1(A160V) yeast two hybrid construct as template, and sequence validated. A short flexible linker and tobacco etch virus (TEV) protease cleavage site (sequence NH2-[…]-COOH; SEQ ID NO:411) was incorporated in between the SUMO tag and the receptor to enable cleavage of the recombinant protein by TEV protease, which yields PYR1(A160V) plus an NH2-terminal QS appendage. […]
Molecule,Minimal conc. For ABA response (HAB1) [µM],Kd [1] [µM],Kd [2] [µM]
"WT: Arabidopsis wildtype PYR1 ABA receptor, SEQ ID NO:1 [reference compound]",1,97 ± 36,
B1,0.25,,1.5
B2,0.25,,
B3,0.25,,
B4,0.25,,
B5,0.5,,
B6,0.25,,
B7,0.25,,
B8,0.25,,
B9,0.25,,
B10,0.25,,
B11,0.5,,
B12,0.25,,
B13,0.5,,
B14,0.25,,
B15,0.5,,
B16,0.5,,
B17,0.5,,
B18,0.25,,
